Laboratory results taken from the RNAGym collection of RNA variant scans (doi:10.1093/molbev/msab373).

B1: Azoarcus group I ribozyme (parent)
chain: GUGCCUUGCGCCGGGAAACCACGCAAGGGAUGGUGUCAAAUUCGGCGAAACCUAAGCGCCCGCCCGGGCGUAUGGCAACGCCGAGCCAAGCUUCGGCGCCUGCGCCGAUGAAGGUGUAGAGACUAGACGGCACCCACCUAAGGCAAACGCUAUGGUGAAGGCAUAGUCCAGGGAGUGGCGAAAGUCACACAAACCGG

Variants of: B1
Experiment: reverse-splicing fitness (ratio to wild type); higher = more active; in vitro selection; Mg2+ level not given
Procedure, shortened: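 An in vitro group I ribozyme library with randomized positions was T7-transcribed and gel-purified. In triplicate, 10 pmol RNA in EPPS pH 7.5 was reacted with 50 pmoles of a 30-nt RNA substrate for 1 h at 37 °C across several added MgCl2 levels (1–48 mM), then stopped with EDTA. Products were reverse transcribed from a substrate-complementary primer, PCR-amplified and sequenced (HiSeq 4000). Fitness is a variant's read proportion after selection over that before, normalised to wild type.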

| Variant | reverse-splicing fitness |
| --- | --- |
| GUGCCUUGCGCCGGGAAACCACGCAAGGGAUGGUGUCAAAUUCGGCGAAACCUAAGCGCCCGCCCGGGCGUAUGGCAACGCUGAGCCAAGCUUCGGCGCCUGCGCCGAUGUAGGUGUAGCGACUAGACGGCACCCACCUAAGGCAAACGGUAUGGUGAAGGCAUAGUCGAGGGAGAGGCGAAAGUCACACAAACCGG [C82U A111U A120C C150G C169G U176A] | 0.00688 |
| GUGCCUUGCGCCGGGAAACCACGCAAGGGAUGGUGUCAAAUUCGGCGAAACCUAAGCGCCCGCCCGGGCGUAUGGCAACGCUGAGCCAAGCUUCGGCGCCUGCGCCGAUGUAGGUGUAGCGACUAGACGGCACCCACCUAAGGCAAACGAUAUGGUGAAGGCAUAGUCUAGGGAGUGGCGAAAGUCACACAAACCGG [C82U A111U A120C C150A C169U] | 0.0114 |
| GUGCCUUGCGCCGGGAAACCACGCAAGGGAUGGUGUCAAAUUCGGCGAAACCUAAGCGCCCGCCCGGGCGUAUGGCAACGCUGAGCCAAGCUUCGGCGCCUGCGCCGAUGUAGGUGUAGCGACUAGACGGCACCCACCUAAGGCAAACGAUAUGGUGAAGGCAUAGUCGAGGGAGUGGCGAAAGUCACACAAACCGG [C82U A111U A120C C150A C169G] | 0.0083 |
| GUGCCUUGCGCCGGGAAACCACGCAAGGGAUGGUGUCAAAUUCGGCGAAACCUAAGCGCCCGCCCGGGCGUAUGGCAACGCUGAGCCAAGCUUCGGCGCCUGCGCCGAUGUAGGUGUAGCGACUAGACGGCACCCACCUAAGGCAAACGAUAUGGUGAAGGCAUAGUCUAGGGAGGGGCGAAAGUCACACAAACCGG [C82U A111U A120C C150A C169U U176G] | 0.00688 |
| GUGCCUUGCGCCGGGAAACCACGCAAGGGAUGGUGUCAAAUUCGGCGAAACCUAAGCGCCCGCCCGGGCGUAUGGCAACGCUGAGCCAAGCUUCGGCGCCUGCGCCGAUGUAGGUGUAGCGACUAGACGGCACCCACCUAAGGCAAACGAUAUGGUGAAGGCAUAGUCUAGGGAGCGGCGAAAGUCACACAAACCGG [C82U A111U A120C C150A C169U U176C] | 0.0203 |
| GUGCCUUGCGCCGGGAAACCACGCAAGGGAUGGUGUCAAAUUCGGCGAAACCUAAGCGCCCGCCCGGGCGUAUGGCAACGCUGAGCCAAGCUUCGGCGCCUGCGCCGAUGUAGGUGUAGCGACUAGACGGCACCCACCUAAGGCAAACGAUAUGGUGAAGGCAUAGUCUAGGGAGAGGCGAAAGUCACACAAACCGG [C82U A111U A120C C150A C169U U176A] | 0.0229 |
| GUGCCUUGCGCCGGGAAACCACGCAAGGGAUGGUGUCAAAUUCGGCGAAACCUAAGCGCCCGCCCGGGCGUAUGGCAACGCUGAGCCAAGCUUCGGCGCCUGCGCCGAUGUAGGUGUAGCGACUAGACGGCACCCACCUAAGGCAAACGGUAUGGUGAAGGCAUAGUCGAGGGAGUGGCGAAAGUCACACAAACCGG [C82U A111U A120C C150G C169G] | 0.00613 |
| GUGCCUUGCGCCGGGAAACCACGCAAGGGAUGGUGUCAAAUUCGGCGAAACCUAAGCGCCCGCCCGGGCGUAUGGCAACGCUGAGCCAAGCUUCGGCGCCUGCGCCGAUGUAGGUGUAGCGACUAGACGGCACCCACCUAAGGCAAACGGUAUGGUGAAGGCAUAGUCUAGGGAGUGGCGAAAGUCACACAAACCGG [C82U A111U A120C C150G C169U] | 0.00868 |
| GUGCCUUGCGCCGGGAAACCACGCAAGGGAUGGUGUCAAAUUCGGCGAAACCUAAGCGCCCGCCCGGGCGUAUGGCAACGCUGAGCCAAGCUUCGGCGCCUGCGCCGAUGUAGGUGUAGCGACUAGACGGCACCCACCUAAGGCAAACGGUAUGGUGAAGGCAUAGUCAAGGGAGUGGCGAAAGUCACACAAACCGG [C82U A111U A120C C150G C169A] | 0.00864 |
| GUGCCUUGCGCCGGGAAACCACGCAAGGGAUGGUGUCAAAUUCGGCGAAACCUAAGCGCCCGCCCGGGCGUAUGGCAACGCUGAGCCAAGCUUCGGCGCCUGCGCCGAUGUAGGUGUAGCGACUAGACGGCACCCACCUAAGGCAAACGGUAUGGUGAAGGCAUAGUCCAGGGAGCGGCGAAAGUCACACAAACCGG [C82U A111U A120C C150G U176C] | 0.00725 |
| GUGCCUUGCGCCGGGAAACCACGCAAGGGAUGGUGUCAAAUUCGGCGAAACCUAAGCGCCCGCCCGGGCGUAUGGCAACGCUGAGCCAAGCUUCGGCGCCUGCGCCGAUGUAGGUGUAGCGACUAGACGGCACCCACCUAAGGCAAACGGUAUGGUGAAGGCAUAGUCCAGGGAGAGGCGAAAGUCACACAAACCGG [C82U A111U A120C C150G U176A] | 0.00451 |
| GUGCCUUGCGCCGGGAAACCACGCAAGGGAUGGUGUCAAAUUCGGCGAAACCUAAGCGCCCGCCCGGGCGUAUGGCAACGCUGAGCCAAGCUUCGGCGCCUGCGCCGAUGUAGGUGUAGCGACUAGACGGCACCCACCUAAGGCAAACGGUAUGGUGAAGGCAUAGUCCAGGGAGGGGCGAAAGUCACACAAACCGG [C82U A111U A120C C150G U176G] | 0.00352 |
| GUGCCUUGCGCCGGGAAACCACGCAAGGGAUGGUGUCAAAUUCGGCGAAACCUAAGCGCCCGCCCGGGCGUAUGGCAACGCUGAGCCAAGCUUCGGCGCCUGCGCCGAUGUAGGUGUAGCGACUAGACGGCACCCACCUAAGGCAAACGGUAUGGUGAAGGCAUAGUCUAGGGAGCGGCGAAAGUCACACAAACCGG [C82U A111U A120C C150G C169U U176C] | 0.0149 |
| GUGCCUUGCGCCGGGAAACCACGCAAGGGAUGGUGUCAAAUUCGGCGAAACCUAAGCGCCCGCCCGGGCGUAUGGCAACGCUGAGCCAAGCUUCGGCGCCUGCGCCGAUGUAGGUGUAGCGACUAGACGGCACCCACCUAAGGCAAACGGUAUGGUGAAGGCAUAGUCUAGGGAGGGGCGAAAGUCACACAAACCGG [C82U A111U A120C C150G C169U U176G] | 0.00538 |
| GUGCCUUGCGCCGGGAAACCACGCAAGGGAUGGUGUCAAAUUCGGCGAAACCUAAGCGCCCGCCCGGGCGUAUGGCAACGCUGAGCCAAGCUUCGGCGCCUGCGCCGAUGUAGGUGUAGCGACUAGACGGCACCCACCUAAGGCAAACGGUAUGGUGAAGGCAUAGUCUAGGGAGAGGCGAAAGUCACACAAACCGG [C82U A111U A120C C150G C169U U176A] | 0.0091 |
